In one test the test system is KMH2 (PSMA-low) cells. The experiment in a line: JNG NFAT-GFP induction on co-culture with KMH2.
A further test deals with Huh-7 cells. The test is described as follows: JNG NFAT-GFP induction on co-culture with Huh-7.
In another test the test system is RAJI cells. The test is described as follows: JNG assay, co-culture with RAJI cells. The following applies: JNG cells expressing construct, co-culture with Raji. In kind it is cell-based. Summed up:
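Jurkat NFAT-GFP (JNG) cells stably transduced with SARs by lentivirus, with drug selection where the construct carried a resistance gene, then co-cultured with target cells at E:T ~1:2 for ~4–18 h. % GFP-positive cells measured by FACS against parental JNG; +/- to 5+ correspond to ~5–50% GFP-positive.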

The next test has as its system HEL 92.1.7 cells. The test is described as follows: JNG assay, co-culture with HEL 92.1.7 cells. The following applies: co-culture with HEL 92.1.7. In kind it is cell-based. Here is the method: Cellular supernatant is collected and assayed for the induction of cytokines (e.g., IL2).
JNG (Jurkat cells expressing EGFP under an NFAT promoter) were infected with lentiviral vectors encoding different single chain and multi-chain SARs by spinfection in the presence of 8 µg/ml of Polybrene® (Sigma, Catalog no. H9268). The Jurkat-NFAT-GFP cells are engineered in such a way that the IL-2 promoter, which carries NFAT binding sites, is cloned upstream of the GFP gene. These cells have been used to study signaling via TCR and CAR. The different SARs were stably expressed in Jurkat NFAT-GFP cells by lentiviral mediated gene transfer, followed by selection with puromycin or blasticidin. No drug selection was used in case the construct lacked an antibiotic resistance gene. The SAR-expressing Jurkat-NFAT-GFP cells were cocultured with the target cells at E:T ratio of approximately 1:2 for approximately 4 hours to 18 hours. When the interaction between SIRs and their target antigen results in activation of the NFAT pathway, GFP expression is induced. […] GFP expression was monitored by FACS analysis. The Jurkat-NFAT-GFP (parental) cells were used as control. The structure of different constructs can be determined based on their names. […] The sequence of the other constructs in the table can be similarly determined from their names and by referring to the different Tables of this disclosure that provide the names and SEQ ID NO of the different modules. Alternatively, the composition and modular architecture of the different SAR constructs can be determined from their sequences by bioinformatics tools, including using nucleic acid and amino acids homology searches. […] The signs +/-, +, 2+ etc. after the name of the cell lines indicate the relative degree of positivity on the Jurkat-NFAT-GFP assay as measured by the % GFP positive cells after culture of the SAR expressing Jurkat-NFAT-GFP cells with that cell line above the % GFP cells observed in parental Jurkat NFAT-GFP cells serving as controls. […]

B1: 21892 (protein)
chain: MALPVTALLLPLALLLHAARPDIQMTQSPSSLSASVGDRVTITCKASQDVGTAVDWYQQKPGKAPKLLIYWASTRHTGVPSRFSGSGSGTDFTLTISSLQPEDFATYYCQQYNSYPLTFGQGTKVEIKRLEDLKNVFPPEVAVFEPSEAEISHTQKATLVCLATGFYPDHVELSWWVNGKEVHSGVCTDPQPLKEQPALNDSRYCLSSRLRVSATFWQNPRNHFRCQVQFYGLSENDEWTQDRAKPVTQIVSAEAWGRADCGFTSESYQQGVLSATILYEILLGKATLYAVLVSALVLMAMVKRKDSRGRAKRSGSGATNFSLLKQAGDVEENPGPTSMDWIWRILFLVGAATGAHSFEVQLVESGGGLVQPGGSLRLSCAASGYTFTEYTIHWVRQAPGKGLEWVANINPNNGGTTYNQKFEDRFTISRDNSKNTLYLQMNSLRAEDTAVYYCARGWNFDYWGQGTLVTVSSTRIQNPDPAVYQLRDSKSSDKSVCLFTDFDSQTNVSQSKDSDVYITDKCVLDMRSMDFKSNSAVAWSNKSDFACANAFNNSIIPEDTFFPSPESSCDVKLVEKSFETDTNLNFQNLSVIGFRILLLKVAGFNLLMTLRLWSSRAKRSGSGVKQTLNFDLLKLAGDVESNPGPSRGHMTEYKPTVRLATRDDVPRAVRTLAAAFADYPATRHTVDPDRHIERVTELQELFLTRVGLDIGKVWVADDGAAVAVWTTPESVEAGAVFAEIGPRMAELSGSRLAAQQQMEGLLAPHRPKEPAWFLATVGVSPDHQGKGLGSAVVLPGVEAAERAGVPAFLETSAPRNLPFYERLGFTVTADVEVPEGPRTWCMTRKPGA
As to B1, the “NFAT-GFP ASSAY: KMH2” value in the test with KMH2 (PSMA-low) cells is “negligible GFP induction”. In the test on Huh-7 cells, the “NFAT-GFP ASSAY: Huh-7” value is given as “negligible GFP induction”.

B2: 22148 (protein)
chain: MALPVTALLLPLALLLHAARPACEVQLLESGGGLIQPGGSLRLSCAASGFTFSSHAMTWVRQAPGKGLEWVSAISGSGDYTHYADSVKGRFTISRDNSKNTVYLQMNSLRAEDSAVYYCAKDEDGGSLLGHRGQGTLVTVSSGTGGGGSGGGGSGGGGSEFDVVMTQSPSSLSASVGDRVTITCMASEDIYIRLAWYQQKPGNAPKLLIYAATSLETGVPSRFSGSGSGTDFTLTISSLQPEDFATYYCQQYWSSPWTFGGGTKVEIKLEGQPKANPTVTLFPPSSEELQANKATLVCLISDFYPGAVTVAWKADGSPVKAGVETTKPSKQSNNKYAASSYLSLTPEQWKSHRSYSCQVTHEGSTVEKTVAPTECSPIKTDVITMDPKDNCSKDANDTLLLQLTNTSAYYMYLLLLLKSVVYFAIITCCLLRRTAFCCNGEKSRAKRSGSGATNFSLLKQAGDVEENPGPTSATMDWIWRILFLVGAATGAHSGPQVQLQESGGGLAQAGGSLRLSCAASGRTFSMGWFRQAPGKEREFVAAITYSGGSPYYASSVRGRFTISRDNAKNTVYLQMNSLKPEDTAVYYCAANPTYGSDWNAENWGQGTQVTVSSGSGGGGSGGGGSGGGGSFEQVQLQESGPGLVKPSQTLSLTCTVSGYSITSDYTWNWIRQPPGNGLEWIGYITYSGSTSYNPSLKSRVLISVDTSKNQVSLKLSSVTAADTAVYYCARLGRRYTMDYWGQGTTVTVSSTRASTKGPSVFPLAPSSKSTSGGTAALGCLVKDYFPEPVTVSWNSGALTSGVHTFPAVLQSSGLYSLSSVVTVPSSSLGTQTYICNVNHKPSNTKVDKRVEPKSCEVKTDSTDHVKPKETENTKQPSKSCHKPKAIVHTEKVNMMSLTVLGLRMLFAKTVAVNFLLTAKLFFLRAKRSGSGVKQTLNFDLLKLAGDVESNPGPSRGHMTEYKPTVRLATRDDVPRAVRTLAAAFADYPATRHTVDPDRHIERVTELQELFLTRVGLDIGKVWVADDGAAVAVWTTPESVEAGAVFAEIGPRMAELSGSRLAAQQQMEGLLAPHRPKEPAWFLATVGVSPDHQGKGLGSAVVLPGVEAAERAGVPAFLETSAPRNLPFYERLGFTVTADVEVPEGPRTWCMTRKPGA
Regarding B2, the “NFAT-GFP ASSAY: Raji” value with RAJI cells is 3+ (refer to approximately 5%, 10%, 20%, 30%, 40% and 50% GFP positive cells). Also, the “NFAT-GFP ASSAY: HEL 92.1.7” value in the test with HEL 92.1.7 cells was “+ (refer to approximately 5%, 10%, 20%, 30%, 40% and 50% GFP positive cells)”.

B3: 21887 (protein)
chain: MALPVTALLLPLALLLHAARPDIQMTQSPSSLSASVGDRVTITCKASQDVGTAVDWYQQKPGKAPKLLIYWASTRHTGVPSRFSGSGSGTDFTLTISSLQPEDFATYYCQQYNSYPLTFGQGTKVEIKRLEPSEAEISHTQKATLVCLATGFYPDHVELSWWVNGKEVHSGVCTDPQPLKEQPALNDSRYCLSSRLRVSATFWQNPRNHFRCQVQFYGLSENDEWTQDRAKPVTQIVSAEAWGRADCGFTSESYQQGVLSATILYEILLGKATLYAVLVSALVLMAMVKRKDSRGRAKRSGSGATNFSLLKQAGDVEENPGPTSMDWIWRILFLVGAATGAHSFEVQLVESGGGLVQPGGSLRLSCAASGYTFTEYTIHWVRQAPGKGLEWVANINPNNGGTTYNQKFEDRFTISRDNSKNTLYLQMNSLRAEDTAVYYCARGWNFDYWGQGTLVTVSSTRDKSVCLFTDFDSQTNVSQSKDSDVYITDKCVLDMRSMDFKSNSAVAWSNKSDFACANAFNNSIIPEDTFFPSPESSCDVKLVEKSFETDTNLNFQNLSVIGFRILLLKVAGFNLLMTLRLWSSRAKRSGSGVKQTLNFDLLKLAGDVESNPGPSRGHMTEYKPTVRLATRDDVPRAVRTLAAAFADYPATRHTVDPDRHIERVTELQELFLTRVGLDIGKVWVADDGAAVAVWTTPESVEAGAVFAEIGPRMAELSGSRLAAQQQMEGLLAPHRPKEPAWFLATVGVSPDHQGKGLGSAVVLPGVEAAERAGVPAFLETSAPRNLPFYERLGFTVTADVEVPEGPRTWCMTRKPGA
With B3, in the test with KMH2 (PSMA-low) cells, the “NFAT-GFP ASSAY: KMH2” value is “negligible GFP induction”. In addition, in the test on Huh-7 cells, the “NFAT-GFP ASSAY: Huh-7” value was “negligible GFP induction”.

The record behind these values is patent US20230212319A1, “NOVEL ANTIGEN BINDING DOMAINS AND SYNTHETIC ANTIGEN RECEPTORS INCORPORATING THE SAME” (University of Southern California, priority 2020, published 2023).
